# In IntAct's records for PubMed 22081014:
# B1: SH2 domain-containing protein 3C (Homo sapiens), Q8N5H7-2 (parent)
# chain: MTAVGRRCPALGSRGAAGEPEAGSDYVKFSKEKYILDSSPEKLHKELEEELKLSSTDLRSHAWYHGRIPREVSETLVQRNGDFLIRDSLTSLGDYVLTCRWRNQALHFKINKVVVKAGESYTHIQYLFEQESFDHVPALVRYHVGSRKAVSEQSGAIIYCPVNRTFPLRYLEASYGLGQGSSKPASPVSPSGPKGSHMKRRSVTMTDGLTADKVTRSDGCPTSTSLPRPRDSIRSCALSMDQIPDLHSPMSPISESPSSPAYSTVTRVHAAPAAPSATALPASPVARRSSEPQLCPGSAPKTHGESDKGPHTSPSHTLGKASPSPSLSSYSDPDSGHYCQLQPPVRGSREWAATETSSQQARSYGERLKELSENGAPEGDWGKTFTVPIVEVTSSFNPATFQSLLIPRDNRPLEVGLLRKVKELLAEVDARTLARHVTKVDCLVARILGVTKEMQTLMGVRWGMELLTLPHGRQLRLDLLERFHTMSIMLAVDILGCTGSAEERAALLHKTIQLAAELRGTMGNMFSFAAVMGALDMAQISRLEQTWVTLRQRHTEGAILYEKKLKPFLKSLNEGKEGPPLSNTTFPHVLPLITLLECDSAPPEGPEPWGSTEHGVEVVLAHLEAARTVAHHGGLYHTNAEVKLQGFQARPELLEVFSTEFQMRLLWGSQGASSSQARRYEKFDKVLTALSHKLEPAVRSSEL
# partner: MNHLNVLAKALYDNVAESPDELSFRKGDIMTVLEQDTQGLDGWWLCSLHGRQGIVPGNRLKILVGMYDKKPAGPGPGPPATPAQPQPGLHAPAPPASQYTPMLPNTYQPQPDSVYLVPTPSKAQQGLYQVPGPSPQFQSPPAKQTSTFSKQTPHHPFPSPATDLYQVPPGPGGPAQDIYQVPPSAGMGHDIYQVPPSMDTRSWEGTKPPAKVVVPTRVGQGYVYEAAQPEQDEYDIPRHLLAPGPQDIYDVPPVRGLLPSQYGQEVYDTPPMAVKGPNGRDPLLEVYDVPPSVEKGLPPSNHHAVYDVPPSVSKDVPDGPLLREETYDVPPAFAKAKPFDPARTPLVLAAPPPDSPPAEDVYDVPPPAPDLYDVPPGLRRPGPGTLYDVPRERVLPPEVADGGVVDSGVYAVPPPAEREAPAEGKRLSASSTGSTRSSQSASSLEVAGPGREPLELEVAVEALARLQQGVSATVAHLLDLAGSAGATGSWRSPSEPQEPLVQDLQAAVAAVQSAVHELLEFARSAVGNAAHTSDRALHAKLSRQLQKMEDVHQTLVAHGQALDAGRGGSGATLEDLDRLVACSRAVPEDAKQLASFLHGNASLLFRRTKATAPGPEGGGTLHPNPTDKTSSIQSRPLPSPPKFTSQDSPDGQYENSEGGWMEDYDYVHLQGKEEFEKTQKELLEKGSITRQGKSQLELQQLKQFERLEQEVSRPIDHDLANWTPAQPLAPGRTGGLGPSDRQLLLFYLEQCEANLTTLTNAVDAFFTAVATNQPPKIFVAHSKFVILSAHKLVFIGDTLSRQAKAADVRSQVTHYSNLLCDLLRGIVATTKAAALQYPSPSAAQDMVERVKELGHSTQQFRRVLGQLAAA
# B2: Breast cancer anti-estrogen resistance protein 3 (Homo sapiens), O75815-1 (parent)
# chain: MAAGKFASLPRNMPVNHQFPLASSMDLLSSRSPLAEHRPDAYQDVSIHGTLPRKKKGPPPIRSCDDFSHMGTLPHSKSPRQNSPVTQDGIQESPWQDRHGETFTFRDPHLLDPTVEYVKFSKERHIMDRTPEKLKKELEEELLLSSEDLRSHAWYHGRIPRQVSENLVQRDGDFLVRDSLSSPGNFVLTCQWKNLAQHFKINRTVLRLSEAYSRVQYQFEMESFDSIPGLVRCYVGNRRPISQQSGAIIFQPINRTVPLRCLEEHYGTSPGQAREGSLTKGRPDVAKRLSLTMGGVQAREQNLPRGNLLRNKEKSGSQPACLDHMQDRRALSLKAHQSESYLPIGCKLPPQSSGVDTSPCPNSPVFRTGSEPALSPAVVRRVSSDARAGEALRGSDSQLCPKPPPKPCKVPFLKVPSSPSAWLNSEANYCELNPAFATGCGRGAKLPSCAQGSHTELLTAKQNEAPGPRNSGVNYLILDDDDRERPWEPAAAQMEKGQWDKGEFVTPLLETVSSFRPNEFESKFLPPENKPLETAMLKRAKELFTNNDPKVIAQHVLSMDCRVARILGVSEEMRRNMGVSSGLELITLPHGHQLRLDIIERHNTMAIGIAVDILGCTGTLEDRAATLSKIIQVAVELKDSMGDLYSFSALMKALEMPQITRLEKTWTALRHQYTQTAILYEKQLKPFSKLLHEGRESTCVPPNNVSVPLLMPLVTLMERQAVTFEGTDMWEKNDQSCEIMLNHLATARFMAEAADSYRMNAERILAGFQPDEEMNEICKTEFQMRLLWGSKGAQVNQTERYEKFNQILTALSRKLEPPPVKQAEL
# partner: B1 partner
# B3: Breast cancer anti-estrogen resistance protein 1 (Homo sapiens), P56945 (parent)
# chain: B1 partner
# partner: B1 chain
# Variants of: B1
# Settings: with bcar1_human BCAR1, P56945
row,effect of a mutation on the interaction,Variant
1,decreasing interaction,L469R
2,decreasing interaction,R627E
3,disrupting interaction,L623E

# Variants of: B1
# Settings: with bcar1_human BCAR1, P56945
# Remark: another data set of the same source
row,effect of a mutation on the interaction,Variant
1,disrupting interaction,L469R

# Variants of: B2
# Settings: with bcar1_human BCAR1, P56945
row,effect of a mutation on the interaction,Variant
1,disrupting interaction,L744E
2,disrupting interaction,R748E

# Variants of: B3
# Settings: with SH2D3C
row,effect of a mutation on the interaction,Variant
1,disrupting interaction,F794E;D797R
2,decreasing interaction,D797R
3,decreasing interaction,F794R
4,decreasing interaction,L787E
5,disrupting interaction,L787E;F794R

# Variants of: B3
# Settings: with SH2D3C
# Remark: another data set of the same source
row,effect of a mutation on the interaction,Variant
1,disrupting interaction,F794R
2,disrupting interaction,L787E
